Laboratory results from publication PMC12658140 (2025).

How the values were obtained:
Experiment in all cases: BLI
[1] = molecular target: H3 stem with T32HA2 (influenza A virus H3N2 …)
[2] = molecular target: H3 stem with R32HA2 (influenza A virus H3N2 …)
[3] = molecular target: H3 stem with I32HA2 (influenza A virus H3N2 …)

B1: 240-14 IgA 2F02 Fab (Fab, V domains shown)
VH: EVQLLESGGGLVQPGGSLRLSCAASGFTFSTYAMSWVRQAPGKGLEWVSTISGSGGSTYDAESVKGRFTISRDNSKNTLYLQMNSLRAEDTAVYYCAKEGGDFWSGYYANWFDPWGQGTLVTVSS
VL: QSALTQPRSVSGSPGQSVTISCTGTRSDVGGYNYVSWYQQHPGKAPKVIIYDVKKRPSGVPDRFSGSKSGNTASLTISGLQAEDEADYYCSAFAGSHTLFGGGTKVTVL
- Kd [1]: 17 nM
- Kd [2]: 28 nM
- Kd [3]: 22 nM
